{"source": "patent US20150165065A1", "about": "(AVIDBIOTICS, published 2015)", "binders": {"B1": {"name": "soluble MICA generated from pKK130 (loop 1 extended 5.1sp, loop 3 extended 5.3sp) (designed binder)", "chain": "HHHHHHEPHSLRYNLTVLSWDGSVQSGFLTEVHLDGQPFLRCDRQKCRAKPQGQWAEDVLGNKTWDRETRDLTGNGKDLRMTLAHIKDQKEGLHSLQEIRVCEIHEDNSTRSSQHFYYDGELFLSQNLETEEWTMPQSSRAQTLAMNVRNFLKEDAMKTKTHYHAMHADCLQELRRYLKSGVVLRRTVPPMVNVTSGGSGGGSVTRGDTFTQSSGGSGGGVTCRASGFYPWNITLSWRQDGVSLSHDTQQWGDVLPDGNGTYQTWVATRISGGSGGGSHLARGDDLTYSGGSGGGCYMEHSGNHSTHPVPSGK", "notes": "From pKK115 (from pKK46: His6, Glu125); secreted by 293T cells; also called 1-5.1sp/3-5.3sp"}, "B2": {"name": "M13 phage pKK93 displaying MICA α3 domain with loop 1 insert 3.2 (designed binder)", "chain": "TVPPMVNVTRTSRGDHPRTQVTCRASGFYPWNITLSWRQDGVSLSHDTQQWGDVLPDGNGTYQTWVATRICQGEEQRFTCYMEHSGNHSTHPVPSGK", "notes": "also called 1-3.2; not shown: C-terminal portion of M13 gene III protein, fused at codon position 198"}, "B3": {"name": "M13 phage pKK91 displaying MICA α3 domain with loop 3 insert His10sp (designed binder)", "chain": "TVPPMVNVTRSEASEGNITVTCRASGFYPWNITLSWRQDGVSLSHDTQQWGDVLPDGNGTYQTWVATRISGGSGGGSHHHHHHHHHHSGGSGGGCYMEHSGNHSTHPVPSGK", "notes": "also called 3-His10; not shown: C-terminal portion of M13 gene III protein, fused at codon position 198"}, "B4": {"name": "soluble MICA generated by pSW273 (wild type loops, negative control) (ligand)", "chain": "HHHHHHEPHSLRYNLTVLSWDGSVQSGFLTEVHLDGQPFLRCDRQKCRAKPQGQWAEDVLGNKTWDRETRDLTGNGKDLRMTLAHIKDQKEGLHSLQEIRVCEIHEDNSTRSSQHFYYDGELFLSQNLETEEWTMPQSSRAQTLAMNVRNFLKEDAMKTKTHYHAMHADCLQELRRYLKSGVVLRRTVPPMVNVTRSEASEGNITVTCRASGFYPWNITLSWRQDGVSLSHDTQQWGDVLPDGNGTYQTWVATRICQGEEQRFTCYMEHSGNHSTHPVPSGK", "notes": "Secreted by 293T cells; six His between signal peptide and residue 1; made from pSW267 (Glu125); also called WT"}, "B5": {"name": "M13 phage pKK136 displaying MICA α3 domain with loop 1 insert 5.1sp and loop 3 insert 3.2sp (designed binder)", "chain": "TVPPMVNVTSGGSGGGSVTRGDTFTQSSGGSGGGVTCRASGFYPWNITLSWRQDGVSLSHDTQQWGDVLPDGNGTYQTWVATRISGGSGGGSTSRGDHPRTQSGGSGGGCYMEHSGNHSTHPVPSGK", "notes": "also called 1-5.1sp/3-3.2sp; not shown: C-terminal portion of M13 gene III protein, fused at codon position 198"}, "B6": {"name": "M13 phage pKK139 displaying MICA α3 domain with loop 1 insert 5.1sp and loop 3 insert 5.1spNH (designed binder)", "chain": "B5 chain with T93V, S94T, H98T, P99F, R100T, T101Q, Q102S", "notes": "also called 1-5.1sp/3-5.1spNH; not shown: C-terminal portion of M13 gene III protein, fused at codon position 198"}, "B7": {"name": "M13 phage pKK138 displaying MICA α3 domain with loop 1 insert 5.1sp and loop 3 insert 5.3sp (designed binder)", "chain": "B5 chain with T93H, S94L, R95A, G96R, D97G, H98D, P99D, R100L, Q102Y", "notes": "also called 1-5.1sp/3-5.3sp; not shown: C-terminal portion of M13 gene III protein, fused at codon position 198"}}, "key": {"[1]": {"molecular_target": "T1, integrin αVβ3 (UniProt P06756 31-992; P05106 27-718)", "T1 construct": "Coated on the ELISA plate", "T1 sequence (P06756 31-992, chain 1 of 2)": "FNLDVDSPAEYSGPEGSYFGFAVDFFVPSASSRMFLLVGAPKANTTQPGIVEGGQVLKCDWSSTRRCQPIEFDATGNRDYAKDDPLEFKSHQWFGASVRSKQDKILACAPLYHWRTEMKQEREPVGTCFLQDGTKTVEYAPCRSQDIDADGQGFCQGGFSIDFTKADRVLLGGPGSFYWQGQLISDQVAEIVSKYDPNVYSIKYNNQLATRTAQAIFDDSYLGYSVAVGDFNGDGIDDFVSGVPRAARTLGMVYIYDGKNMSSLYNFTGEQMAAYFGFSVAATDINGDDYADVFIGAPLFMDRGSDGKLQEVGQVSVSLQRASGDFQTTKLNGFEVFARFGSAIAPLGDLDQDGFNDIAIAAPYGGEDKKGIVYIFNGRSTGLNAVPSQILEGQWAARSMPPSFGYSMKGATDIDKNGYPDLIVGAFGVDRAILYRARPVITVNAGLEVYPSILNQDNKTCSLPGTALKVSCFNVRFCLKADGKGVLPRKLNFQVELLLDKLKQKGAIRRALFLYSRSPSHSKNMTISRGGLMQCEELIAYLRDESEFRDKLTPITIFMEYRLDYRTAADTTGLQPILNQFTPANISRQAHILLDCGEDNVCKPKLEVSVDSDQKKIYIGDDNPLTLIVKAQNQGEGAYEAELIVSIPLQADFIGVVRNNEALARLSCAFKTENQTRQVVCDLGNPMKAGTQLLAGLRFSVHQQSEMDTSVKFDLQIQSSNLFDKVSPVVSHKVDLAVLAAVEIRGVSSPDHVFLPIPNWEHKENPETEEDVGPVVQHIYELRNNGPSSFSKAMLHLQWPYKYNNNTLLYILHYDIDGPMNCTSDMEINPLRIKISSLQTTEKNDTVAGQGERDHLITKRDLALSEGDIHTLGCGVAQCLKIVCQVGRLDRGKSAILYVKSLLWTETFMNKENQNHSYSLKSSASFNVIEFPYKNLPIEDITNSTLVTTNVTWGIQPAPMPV", "T1 sequence (P05106 27-718, chain 2 of 2)": "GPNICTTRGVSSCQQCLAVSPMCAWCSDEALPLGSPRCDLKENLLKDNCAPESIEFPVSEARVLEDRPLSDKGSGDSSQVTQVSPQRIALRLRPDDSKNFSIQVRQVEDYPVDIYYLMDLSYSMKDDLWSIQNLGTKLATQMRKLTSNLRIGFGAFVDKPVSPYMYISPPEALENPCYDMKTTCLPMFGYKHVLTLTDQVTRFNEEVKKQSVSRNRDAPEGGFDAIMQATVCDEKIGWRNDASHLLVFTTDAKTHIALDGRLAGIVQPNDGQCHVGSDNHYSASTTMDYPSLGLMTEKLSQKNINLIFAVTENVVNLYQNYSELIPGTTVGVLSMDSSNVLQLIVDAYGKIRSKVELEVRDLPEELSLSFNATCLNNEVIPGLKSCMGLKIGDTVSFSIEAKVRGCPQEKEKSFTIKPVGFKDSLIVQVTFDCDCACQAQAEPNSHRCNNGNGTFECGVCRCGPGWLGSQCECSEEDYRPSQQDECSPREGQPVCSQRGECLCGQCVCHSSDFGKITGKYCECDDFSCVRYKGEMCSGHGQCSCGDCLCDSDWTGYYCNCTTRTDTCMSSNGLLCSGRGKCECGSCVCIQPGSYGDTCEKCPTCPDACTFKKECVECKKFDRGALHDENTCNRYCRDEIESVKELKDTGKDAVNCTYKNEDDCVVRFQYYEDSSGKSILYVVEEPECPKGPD", "assay": "ELISA, coated integrin, anti-MICA-HRP", "experimental": "(§1) ELISA assays of the integrin target-binding of soluble MICA molecules generated from pKK128-131 were performed as follows. After the respective integrins were adhered to the bottoms of the wells of the ELISA plate, the wells were washed and blocked. Each sample (100 μl) of culture supernatant was added to wells containing αVβ3 or αVβ5, incubated and washed. The soluble MICA molecules captured by the integrins were detected by HRP-conjugated antibody to human MICA developed with Ultra TMB-ELISA substrate and the optical densities read. The quantity of soluble MICA in each sample was determined by the MICA-specific ELISA."}, "[2]": {"molecular_target": "T2, integrin αVβ5 (UniProt P06756 31-992; P18084 24-719)", "T2 construct": "Coated on the ELISA plate", "T2 sequence (P06756 31-992, chain 1 of 2)": "as the sequence (P06756 31-992, chain 1 of 2) above", "T2 sequence (P18084 24-719, chain 2 of 2)": "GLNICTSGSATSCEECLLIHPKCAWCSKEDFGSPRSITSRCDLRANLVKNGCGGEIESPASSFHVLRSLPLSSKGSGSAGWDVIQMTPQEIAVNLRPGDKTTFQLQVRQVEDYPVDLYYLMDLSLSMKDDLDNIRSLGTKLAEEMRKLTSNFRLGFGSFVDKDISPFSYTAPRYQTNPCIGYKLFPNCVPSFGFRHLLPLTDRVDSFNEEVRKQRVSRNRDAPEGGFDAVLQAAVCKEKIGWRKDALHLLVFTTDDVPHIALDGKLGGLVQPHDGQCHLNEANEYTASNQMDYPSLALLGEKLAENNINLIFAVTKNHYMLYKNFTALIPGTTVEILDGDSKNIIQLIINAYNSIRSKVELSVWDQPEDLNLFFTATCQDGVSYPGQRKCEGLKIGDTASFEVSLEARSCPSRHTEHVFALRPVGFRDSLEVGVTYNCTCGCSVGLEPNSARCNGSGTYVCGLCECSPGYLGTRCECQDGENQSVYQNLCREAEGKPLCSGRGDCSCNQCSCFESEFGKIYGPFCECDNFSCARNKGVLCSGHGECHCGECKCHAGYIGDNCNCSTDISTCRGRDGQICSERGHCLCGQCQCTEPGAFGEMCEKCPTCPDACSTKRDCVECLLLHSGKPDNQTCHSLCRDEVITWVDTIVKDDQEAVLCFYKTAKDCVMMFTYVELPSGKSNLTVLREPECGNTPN", "assay": "ELISA, coated integrin, anti-MICA-HRP", "experimental": "as §1"}, "[3]": {"molecular_target": "T1, integrin αVβ3", "assay": "phage ELISA, coated integrin, anti-M13-HRP", "experimental": "(§2) The ELISA assays of the integrin target-binding of M13 phages displaying α3 domains with binding peptide inserts grafted into more than one loop were performed as follows. After the respective integrins were adhered to the bottoms of the wells of the ELISA plate, the wells were washed and blocked. Each sample (100 μl) of phage preparation was added to wells containing αVβ3 or αVβ5, incubated and washed. The phages captured by the integrins were detected by HRP-conjugated antibody to the M13 phage coat developed with Ultra TMB-ELISA substrate and the optical densities read."}, "[4]": {"molecular_target": "T2, integrin αVβ5", "assay": "phage ELISA, coated integrin, anti-M13-HRP", "experimental": "as §2"}, "[5]": {"molecular_target": "T1, integrin αVβ3", "assay": "phage ELISA, coated integrin, anti-M13-HRP", "experimental": "(§3) The phage vectors were independently transformed into NEBαF′tet competent E. coli cells. Phages produced by the transformed cells were tittered and their concentrations adjusted by dilution to 10¹³ per ml. The ability of the soluble MICA molecules in each of the phage preparations was assayed by an ELISA using the intended target proteins, integrin αVβ3 or αVβ5, as capture agents on the ELISA plate. After the respective integrins were adhered to the bottoms of the wells of the ELISA plate, the wells were washed and blocked, as well known in the field. Each sample (100 μl) of phage preparation was added to wells containing αVβ3 or αVβ5, incubated and washed. The phages captured by the integrins were detected by HRP-conjugated antibody to the M13 phage coat developed with Ultra TMB-ELISA substrate and the optical densities read.", "remark": "listed apart in the source"}, "[6]": {"molecular_target": "T2, integrin αVβ5", "assay": "phage ELISA, coated integrin, anti-M13-HRP", "experimental": "as §3", "remark": "listed apart in the source"}, "[7]": {"molecular_target": "T1, integrin αVβ3", "assay": "phage ELISA, coated integrin, anti-M13-HRP", "remark": "listed apart in the source"}, "[8]": {"molecular_target": "T1, integrin αVβ3", "assay": "ELISA, coated integrin, anti-MICA-HRP", "experimental": "(§4) The ability of the soluble MICA molecules in each of the concentrated supernatants to bind target molecules was assayed by an ELISA using the intended target proteins, integrin αVβ3 or αVβ5, as capture agents on the ELISA plate. After the respective integrins were adhered to the bottoms of the wells of the ELISA plate, the wells were washed and blocked, as well known in the field. Each sample (100 μl) of soluble MICA produced and secreted by 293T cells was added to wells containing αVβ3 or αVβ5, incubated and washed. The soluble MICA molecules captured by the integrins were detected by HRP-conjugated antibody to human MICA developed with Ultra TMB-ELISA substrate and the optical densities read. The quantity of soluble MICA in each sample was determined by the MICA-specific ELISA. […] The ELISA signal from a non-binding, negative control MICA (generated by pSW273) was subtracted from each integrin binding signal.", "remark": "listed apart in the source"}, "[9]": {"molecular_target": "T2, integrin αVβ5", "assay": "ELISA, coated integrin, anti-MICA-HRP", "experimental": "as §4", "remark": "listed apart in the source"}}, "note": "Where a chain is given by its changes, count along the chain named.", "data": [{"binder": "B1", "values": [{"measurement": "αvβ3 signal", "setting": "[1]", "result": 0.606, "unit": "OD"}, {"measurement": "αvβ3 signal/ng", "setting": "[1]", "result": 19.6, "unit": "signal/ng MICA"}, {"measurement": "αvβ5 signal", "setting": "[2]", "result": 0.832, "unit": "OD"}, {"measurement": "αvβ5 signal/ng", "setting": "[2]", "result": 26.9, "unit": "signal/ng MICA"}]}, {"binder": "B2", "values": [{"measurement": "αvβ3 signal", "setting": "[3]", "result": 0.616, "unit": "OD"}, {"measurement": "αvβ5 signal", "setting": "[4]", "result": 0.774, "unit": "OD"}, {"measurement": "αvβ3 signal", "setting": "[5]", "result": 0.284, "unit": "OD"}, {"measurement": "αvβ5 signal", "setting": "[6]", "result": 0.291, "unit": "OD"}]}, {"binder": "B3", "values": [{"measurement": "αvβ3 signal", "setting": "[7]", "result": 0.303, "unit": "OD"}, {"measurement": "αvβ5 signal", "setting": "[6]", "result": 0.078, "unit": "OD"}]}, {"binder": "B4", "values": [{"measurement": "binding result", "setting": "[8]", "result": "no binding"}, {"measurement": "binding result", "setting": "[9]", "result": "no binding"}, {"measurement": "αvβ3 signal", "setting": "[1]", "result": 0.099, "unit": "OD"}, {"measurement": "αvβ3 signal/ng", "setting": "[1]", "result": 6.73, "unit": "signal/ng MICA"}, {"measurement": "αvβ5 signal", "setting": "[2]", "result": 0.1, "unit": "OD"}, {"measurement": "αvβ5 signal/ng", "setting": "[2]", "result": 6.8, "unit": "signal/ng MICA"}]}, {"binder": "B5", "values": [{"measurement": "αvβ3 signal", "setting": "[3]", "result": 2.46, "unit": "OD"}, {"measurement": "αvβ5 signal", "setting": "[4]", "result": 4.28, "unit": "OD"}]}, {"binder": "B6", "values": [{"measurement": "αvβ3 signal", "setting": "[3]", "result": 2.48, "unit": "OD"}, {"measurement": "αvβ5 signal", "setting": "[4]", "result": 5.36, "unit": "OD"}]}, {"binder": "B7", "values": [{"measurement": "αvβ3 signal", "setting": "[3]", "result": 0.886, "unit": "OD"}, {"measurement": "αvβ5 signal", "setting": "[4]", "result": 2.75, "unit": "OD"}]}]}
